Test results from US10494417B2, “Peptide inhibitors of BCR-ABL oligomerization” (University of Utah Research Foundation, priority 2014, dated 2019).
“Also recorded” adds a separate entry of the source.

Assays:
Type in all cases: cell-based, mouse
[1] = system: Ba/F3 cells expressing BCR-ABL1E255V/T315I; assay: Colony forming assay of Ba/F3 BCR-ABL1 E255V/T315I cells; details: for colony formation, in words: CCmut3 gene delivery (transfection; b502 lentiviral infection) vs EV
Method: Following selection of transfected cells by cell sorting, viable cells were enumerated and seeded into methylcellulose as described previously (Dixon, A. S., et al. (2011) J. Biol. Chem. 286, 27751-27760). Briefly, mCherry-positive Ba/F3 cells were re-suspended in IMDM with 2% FBS (Stem Cell Technologies) at a concentration of 10,000 cells/mL. Three hundred microliters of this dilution was added to 3 mL of Methocult media (M3434—Ba/F3 p210 wild-type and mutant lines or M3234—Ba/F3 parental, Stem Cell Technologies). Approximately 1100 cells, or 1.2 mL, were seeded per dish in duplicate for each transfection. Colonies were counted 7 days later in an area of […] per dish.
Following selection of transfected cells by cell sorting, methylcellulose colony assays were performed by plating in 0.9% methylcellulose (Stem Cell Technologies; M3234 for Ba/F3 BCR-ABL1 native and mutant lines; M3434 for Ba/F3 parental cells; H4230 for CML patient samples). mCherry-positive Ba/F3 cells (1.1×10^3 cells/plate) or GFP-positive primary CML CD34+ cells (1×10^3 cells/plate) were seeded per dish in duplicate. In the case of CML patient samples, cells were plated in the presence of 1× StemSpan CC100 cytokine cocktail (StemCell Technologies). All cells were plated with or without the indicated TKI in three or more independent experiments. Plates were incubated at 37° C. in a 5% CO2 humidified incubator. Colonies were counted 7-14 days later in an area of 50 μm2 per dish using an inverted microscope.

[2] = system: Ba/F3 cells expressing native BCR-ABL1 (Ba/F3-p210); assay: Colony forming assay of transfected Ba/F3-p210 cells; details: CCmut3 alone vs EV or EGFP control
Method: Briefly, K562 or Ba/F3-p210 cells were transfected according to the protocol above. One day following transfection, 1.0×10^6 cells per transfection group were collected and re-suspended in sterile PBS. […] Finally, 1.1 mL of cell/methylcellulose mixture was seeded in duplicate and allowed to grow at 37° C. and 5% CO2 for 7 days. Colony formation was assessed by counting colonies in two 200 μm2 areas on the plate. Experiments were performed once in duplicate (n=1 in duplicate). All kit reagents and media were purchased from Stem Cell Technologies (Vancouver, BC, Canada).

parental Ba/F3 cells = assay: Proliferation of transfected parental Ba/F3 cells (MTS assay); details: for proliferation of parental Ba/F3 cells: MTS assay at 72 and 96 h, CCmut3 vs EV
Method: (§1) Stable recombinant Ba/F3 cells transduced with wild type p210 BCR-ABL1 (Daley, G. Q., et al. (1991) Proc. Natl. Acad. Sci. U.S.A. 88, 11335-11338), the kinase domain mutants p210^T315I p210^[…], or the compound mutant p210^E255V/T315I were as previously described (La Rosee, P., et al. (2002) Cancer Res. 62, 7149-7153; O'Hare, T., et al. (2004) Blood 104, 2532-2539). These cells were cultured in RPMI with 10% FBS, 1% penicillin, streptomycin, glutamine, and 0.1% gentamycin (RPMI1640). Additionally 0.1% MycoZap™ (Lonza Bio, Basel, Switzerland) was added to prevent mycoplasma contamination. The non-transduced parental Ba/F3 cell line was grown in RPMI1640 supplemented with 20% WEHI-3B conditioned medium as a source of murine IL-3 (Dexter, T. M., et al. (1980) J. Exp. Med. 152, 1036-1047). Ba/F3 cells were transfected with plasmid DNA using the Amaxa nucleofection system (Lonza Bio), following the manufacturer's instructions. Cells were sorted on a BD FACSAria cytometer (BD Biosciences, San Jose, Calif.) for double-positive cells expressing mCherry and GFP then returned to RPMI1640 for subsequent experiments.
(§2) Cell proliferation was assessed using the CellTiter 96® AQueous One Solution Cell Proliferation Assay (MTS assay, Promega) according to manufacturer instructions. Briefly, 5,000 viable cells were added to a single well in 96-well plate in 100 μL RPMI1640. Three independent samples were seeded in duplicate for each time point. […] In some experiments, cell proliferation was assessed using a Neubauer chamber and trypan blue dye exclusion.
(§3) Stable Ba/F3 cells transduced with native (p210) BCR-ABL1, the kinase domain mutants BCR-ABL1T315I, BCR-ABL1E255V, or the compound mutant BCR-ABL1E255V/T315I were cultured. […]
(§4) Cell proliferation was assessed using a […] viability assay (MTS assay) utilizing CellTiter 96® AQueous One Solution Cell Proliferation Assay (Promega) according to manufacturer instructions. […] Cell growth was assessed by MTS assay at 72 and 96 h. […] In patient sample experiments, cell proliferation was assessed by trypan blue exclusion.

[3] = system: Ba/F3 cells expressing native BCR-ABL1; assay: Proliferation of transfected Ba/F3 cells with native p210 BCR-ABL1 (MTS assay); details: CCmut3 vs EV; for reduction of proliferation: 96 h
Method: as §1, §2, §3, §4

B1: CCmut3: modified Bcr-Abl coiled-coil domain (residues 1-72) with mutations C38A, K39E, S41R, L45D, E48R, Q60E (protein)
chain: MVDPVGFAEAWKAQFPDSEPPRMELRSVGDIEQELERAEARIRRDEQRVNQERFRMIYLETLLAKEKKSYDR
Question: Which “colony formation, in words” value [1] does the source give for B1 here?
Answer: again reduced

Question: What about the “colony formation, in words” value ([1]; listed as CC^mut3) of the same molecule?
Answer: reduced; also recorded: Inhibition in colony formation

Question: What about the “reduction of CFCs / colony forming ability compared to EV” value ([1]; CCmut3 vs EV) of the same molecule?
Answer: approximately 50%

Question: What about the “colony formation, in words” value [2] of the same molecule?
Answer: greatly reduced; also recorded: nearly eliminated colony forming ability

Question: What about the “colony formation, in words” value ([2]; listed as CC^mut3) of the same molecule?
Answer: greatly reduced; also recorded: nearly eliminated CFCs; also recorded: significantly lower than the EGFP control

Question: What about the “proliferation of parental Ba/F3 cells” value (parental Ba/F3 cells) of the same molecule?
Answer: not affected; also recorded: No difference

Question: What about the “proliferation of parental Ba/F3 cells” value (parental Ba/F3 cells; listed as CC^mut3) of the same molecule?
Answer: not affected; also recorded: No difference

Question: And the “toxicity in BCR-ABL1-negative cells” value (parental Ba/F3 cells; parental Ba/F3 cells, FIGS. 38a, c, e (proliferation, apoptosis, colony formation))?
Answer: no measurable toxicity

Question: And the reduction of proliferation [3]?
Answer: > 2 fold

Question: What about the reduction of proliferation ([3]; listed as CC^mut3) of the same molecule?
Answer: more than 2 fold

Question: What about the “proliferation, in words” value [3] of the same molecule?
Answer: significantly reduced proliferation at 96 h
